Literature values as cited in article PMC11187271.

Biological target: Galectin-1 (Homo sapiens) (UniProt P09382)
UniProt P09382, sequence (P09382 2-135): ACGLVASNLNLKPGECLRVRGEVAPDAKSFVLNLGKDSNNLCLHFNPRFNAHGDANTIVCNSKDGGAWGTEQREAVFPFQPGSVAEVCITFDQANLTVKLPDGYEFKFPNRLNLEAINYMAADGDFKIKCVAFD

- Kd: 46 µM
Substance: Thymosin alpha-1 (from UniProt P06454)
